This passage reports Kd results from patent US12630620 (dated 2026).

Where two headings read alike, the source gives them in different places.

For test [1], the target named is T1, commercial GDF15 recombinant protein (R&D, 9279-GD) (UniProt Q99988 197-308).
T1 chain: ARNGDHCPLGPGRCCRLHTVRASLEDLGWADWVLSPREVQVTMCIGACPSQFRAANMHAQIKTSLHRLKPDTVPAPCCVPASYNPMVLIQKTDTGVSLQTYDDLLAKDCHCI
Briefly: SPR.

The target in test [2] is T1, commercial GDF15 recombinant protein …. Nature of the test: SPR.

B1: anti-GDF15 neutralizing monoclonal antibody G2 (antibody, V domains shown)
VH: QVQLQQSGAELARPGASVKLSCKASGYTFTDYYINWVKQRTGQGLEWIGEIYPGSGNTYYNEKFKGKATLTADKSSSTAYMQLSSLTSEDSAVYFCARVRALLRPLAMDYWGQGTSVTVSS
VL: QIVLSQSPAILSASPGEKVTMTCRASSSVSYMHWYQQKPGSSPKPWIYATSNLASGVPARFSGSGSGTSYSLTISRVEAEDAATYYCQQWSSNPPFTFGSGTKLEIK
For B1, the Kd in test [1] is 572 nM.

B2: anti-GDF15 neutralizing monoclonal antibody G1 (antibody, V domains shown)
VH: DVQLQESGPGLVKPSQSLSLTCTVTGYSITSAYAWNWIRQFPGNKLEWMGYISYSGSTSYNPSLKSRISITRDTSKNQFFLQFNSVTTEDTATYYCARGGDAEDYWGQGTTLTVSS
VL: DIQMTQSPASLSVSVGETVTITCRASENIYSNLAWFQQKQGKSPQLLVYVATNLVDGVPSRFSGSGSGTQYSLKINSLQSEDFGTYYCQHFWGTPWTFGGGTKLEIK
Consider B2, for which the dissociation constant Kd in test [2] was found to be 71.4 nM.
